Experimental findings from article PMC2956612 (Structure (London, England : 1993), 2010) are described below.

The assay concerns the target T1, full length VDR/RXRα heterodimer (His-hVDR with Flag-hRXRα) (human, UniProt P11473 1-427; P19793 1-462).
T1 sequence (looked up) 1: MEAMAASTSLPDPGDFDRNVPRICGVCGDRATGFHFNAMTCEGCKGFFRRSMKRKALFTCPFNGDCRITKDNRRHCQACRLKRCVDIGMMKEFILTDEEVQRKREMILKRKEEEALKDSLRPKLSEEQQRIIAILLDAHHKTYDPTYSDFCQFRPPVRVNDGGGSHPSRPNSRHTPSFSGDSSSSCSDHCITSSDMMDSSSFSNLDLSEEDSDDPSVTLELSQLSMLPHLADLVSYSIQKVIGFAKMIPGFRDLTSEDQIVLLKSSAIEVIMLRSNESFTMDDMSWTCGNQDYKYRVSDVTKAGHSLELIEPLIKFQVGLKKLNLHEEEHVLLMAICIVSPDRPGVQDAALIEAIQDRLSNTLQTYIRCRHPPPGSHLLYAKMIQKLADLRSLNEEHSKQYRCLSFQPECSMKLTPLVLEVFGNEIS
T1 sequence (looked up) 2: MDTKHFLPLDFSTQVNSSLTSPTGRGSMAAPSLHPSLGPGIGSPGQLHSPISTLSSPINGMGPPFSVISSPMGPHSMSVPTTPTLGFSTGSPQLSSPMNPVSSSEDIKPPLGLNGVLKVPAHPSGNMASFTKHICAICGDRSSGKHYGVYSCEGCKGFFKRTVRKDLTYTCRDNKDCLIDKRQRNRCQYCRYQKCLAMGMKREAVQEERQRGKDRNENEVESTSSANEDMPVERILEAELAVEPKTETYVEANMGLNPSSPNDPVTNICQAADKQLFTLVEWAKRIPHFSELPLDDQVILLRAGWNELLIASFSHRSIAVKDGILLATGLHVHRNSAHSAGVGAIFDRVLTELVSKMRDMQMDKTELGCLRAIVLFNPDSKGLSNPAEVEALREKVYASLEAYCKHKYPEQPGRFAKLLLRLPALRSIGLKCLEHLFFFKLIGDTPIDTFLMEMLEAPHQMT
The experiment in a line: AlphaScreen or HTRF. For orientation: Alpha assays give light when donor and acceptor beads are brought close together.

Ends that are not written are not given here. * marks the point of attachment. Biotin = O=C1N[C@H]2[C@H](CS[C@H]2CCCCC(=O)*)N1

For the molecule Biotin-KGGTPPPVSSMAGNTKNHPMLMNLLKDNPAQDF [biotinylated DRIP 205-2 peptide], the binding result is “binds”.
The result for Biotin-KGGGGSCPSSHSSLTERHKILHRLLQEGSPSDI [biotinylated SRC1-NR2 peptide] reads “binds”.
